Assay results from the DeepSol protein solubility set.

Assay: soluble on expression in E. coli; label from the status in PepcDB or PDB records

| Sequence | soluble on expression in E. coli |
| --- | --- |
| MGSDKIHHHHHHMSRFVVITAAQDFQRKVQSAVRGALHGTVQILPPSVMLGGPQELFGRLSGEPPEVLVLGPGLPGDEALKLATVFDLQYPEISLVLVEDMASEQVINAMRAGIRDIVSPSAEVSELRILLERACLASAGRRRGLVAAAGPERPAGRVIAVMSPKGGVGKTTVATNLAIGLGKIAPMGVVIVDLDVQFGDVATGLQLEPEHTLRDAVGGAAFQDSMVLKAFLTVHPSGIYALCAPNTPGEADHISGEAVSHLLNQMAAEFQYVVVDTTPGLGEHVLATLEQATDAVWVCGMDIPSIRGLHTSFEVLRELQLLPQGRHVVLNFADRRSGLTVQDVEATIGVPVDTVVPRSRAVPFSTNKGVPLLQDSSHDGAARAFAKLVERFDPKRATQPQKKVHRRMVIS | not soluble |
| MGSDKIHHHHHHMVSFVHSSDLHLGKSFGTFPEDVRVRLQQARLESLTTLADIARTNGARHVLLAGDTFDKMTPAPKVIRGALNAMREAADVTWWVLPGNHDHVNATELWRTFTSDAPANVHALLRPEPVMLTDGVALLPAPPTERHPGRDLTDWFDDAATGDALRIGLAHGSIRGFSAEDGGASVLSFNRARDAGLAYLGLGDWHGQLQVSENTWYSGAPEADSFKHAMDPSALLVEVDGARVTVTPHPTSRLIWRASEVDLIGDEADLPLPPQDRARTLLKLTLTGRARPAVRRDLEAAFDHAAPDFLWAEAEFDGLDLVHETSDLDQIDRQGALRAAAEALVREADDQALSPEARATADAALSLLFTYAAEA | not soluble |
| MSLNEITLNVLYNLPGFTKFHQPLADEFMKKNPDVKINFLAPAAGYNEGQQQVLRSAVTGNLPDVYFSGYNLTAELVHTLAPRNQITDLGPFIQAEGGQAFLDKNYSPKMAALGQIDGKQYGLPVNASSPIIYINSDLVTKAGGDPDKMPTTFPELIALAKKIKALDPKFAGMSYDINGWPDDWLWQALVVEQGGKLVDDKTKTVAFDNEIGLNALKMTRQFVTEGGQNLLDWDQSRQQFGAGLTGFIFSTPAHVQTIQGLVGDRFKLKTATFPLDNKEKGGVPTGGNSAVILTQEKAKQDAAWKYLKWITGPEAQNTIVRITGYLPTNKLATGPDFLAPYYVENPNVKTASLQADRSLPWAGYPGGDSVRIWRTQRDIIGTVMRGEVTPEAGLKQIVEQTNALLKEGHHHHHH | soluble |
| MTPLQQAQLSPQEEAVFDGDAISGSGLRFSELTRPVNLLVMGMSVLPPDVQNPPTETQNLRYLPQVNSFDGLADVMLMVKFDPETKKIAMLSIPRDTRTRIEGHGVRKINAANVEGGPALTATTVSNLLGGVGIDRYIRINVLGVGKLIDALGGVTVYVPKDMKYQDHSQHLYINLKAGKQHLNGDQVLQLLRFRHDELGDIGRIQRQQMVMRALMDQALNPVTVAQLPKILNVVKDNIDTNLTVEELVALVGFGVRTNRTNMQMLMLPGRFSEPNEYNASYWIPSKNGIAKLMAQHFGLESLSENPVNDPTAVRVAIQDSTGSDRSQLRPLINALEKAGYRNVYVANAWTEPLEVTNIIAQQGDGNSAESIRNALGFGEVRVESTGSLNSDISIQVGKDWLQQKSLLEDSIKFLEHHHHHH | soluble |
| MNQKPTPLMSPPPPAQQNGKDHKEKLHRIEDIMYSDADTFPEFSNRDGSRETVDTCWQLVLIRVPEHPNETHIKTINDAITSEMKATWKIPATSFAYVSAPHIPILQLAYGVAKKHFGEKTAIRSSFMFAEPKNDKFLIAKDSDLKHLKYEVILGASRFCWTKVETHAEMSKRIESTLFELMRVLPNLVLFLGPLAFDVLYETLEMQKRKTIAKPGVVIENFKRENNKWKRVQKHGATSISVPLC | not soluble |
| MGSDKIHHHHHHMNESERKIVEEFQKETGINFKNEELLFRALCHSSYANEQNQAGRKDVESNEKLEFLGDAVLELFVCEILYKKYPEAEVGDLARVKSAAASEEVLAMVSRKMNLGKFLFLGKGEEKTGGRDRDSILADAFEALLAAIYLDQGYEKIKELFEQEFEFYIEKIMKGEMLFDYKTALQEIVQSEHKVPPEYILVRTEKNDGDRIFVVEVRVNGKTIATGKGRTKKEAEKEAARIAYEKLLKERS | soluble |
| MSLVVGTDAHKYSHTFVATDEVGRQLGEKTVKATTAGHATAIMWAREQFGLELIWGIEDCRNMSARLERDLLAAGQQVVRVPTKLMAQTRKSARSRGKSDPIDALAVARAVLRETDLPLATHDETSRELKLLTDRRDVLVAQRTSAINRLRWLVHELDPERAPAARSLDAAKHQQALRTWLDTQPGLVAELARAELTDIIRLTGEINTLAQRISARVHQVAPALLEIPGCAELTAAKIVGEAAGVTRFKSEAAFACHAAVAPIPVWSGNTAGQMRLSRSGNRQLNAALHRIALTQIRMTDSRGQAYYQRLQDAGKTKRAALRCLKRRLARTVFQALRTVHQPSSEHTQPAAACHRSYCSSHLGEPPRLTDMTQKTRIQPLPPKRAGLLIRALYRIAKRRFGEVPEPFTVTAHHRRLLIANVVHEALLQRASRKLPPSVRELAVFWTARSIGCSWCVDFGAMLQRLDGLDVDRLTDIDNYATSSKFSDDERAAIAYAEAMTADPHSVTDEQVADLRARFGEAGVIELTYQIGVENMRARMNSALGITEQGFNSGDACRVPWAAPDVPSAESREGHHHHHH | not soluble |
| MGSDKIHHHHHHMNYEGKTKIVKVTGDYALLEFKDDITAGDGLKHDVLTGKGSICAETTAILMKYLSEKGIKTHLVEYIPPRTLKVIPLKMFPLEVVVRLKKAGSFVRRYGGAEGEDLPVPLVEFFIKDDERHDPMVCVDHLEILGIATKKQAEKMKEAAVKITLALKEFFERANFELWDIKYEFGLDKDGNVVLGDEISPDTFRLRKKGEIFDKDVYRRDLGDPLKKYREVLELCRSLNSQ | not soluble |
| MTNKLTSLTIAFVGALSSMGAQAHGWVEYPSARQNTCYLDGGFWDNTIPNQACQAAYDESGAFPFVQRNEVAANVPNYQDMAHVQAIVRDGHLCSAGDAAKSGLNLGSLHWQKTAIALDANNQIELIFNATAPHNPSYWQFYLSNENYDPTVPLTWGDLVLIDTAGNVPVGEDKKYRIKITLPADRSDSAVLYTRWQREDAAGEGFYNCSDISFNGSGTTPPKPTDPVEPPQYSDLGYYINQGFGPVESGDTVRFRTFDSTGAETTDISLAITANNTSTWSAELAGQFNQLKNKEWFIGIWHQEMNHYMYDSNNIYANKVFAPTANVSYQLSLIKADITPPVEPPVEPSNPWDKTATYNAGDIVDHNGKAWVAQWWTKGEEPGTTGEWGVWR | not soluble |
| MGSDKIHHHHHHMAAPIIHGGGITEAAARFGGTPEDWLDLSTGINPCPAALPEIDARVWHRLPDRHVEEAARAAASRYYRTGELMPLPVPGTQAAIQLLPRIAGQRKRVAIFAPTYGEYARVLKAAGLVVDSVTCAGDLQAAHGLAVVVNPNNPTGRRFPPEEILAMAEAMRAHGGLLVVDEAFGDLEPDASVAGHVAANDNLVVFRSFGKYFGLAGLRLGFVVASRTVEDSFRDWLGPWSVSGPALAISAKLMEGDTLGIKVGIAERKAALDAVLFGAGLDVVGGTGLFTLVEHERAYDLHAALCEAHILTRKFDYDPRWLRIGLSPNAQGDRRLAEALNRMGV | not soluble |
| MGSDKIHHHHHHMATPADKLAESLAVLKTLRDQGRKALRSEDMGRTHRERLMRNGFIKEVMKGWYIPSRPDEPAGESTSWYASFWVFCASYLESRFGDEWCVSPEQSIHLHTGNWSVPKQLLIRSPKGGNKPTGLLHGTSILDVRLELPPASDTEIKEGMRIYNLPAALVGCSQTQFSAHPTEMRTALTMMQDASELLGRLLAGGHSKIAGWLAGACRSIGRKQIADDILGAMRAAGYTVNENNPFKDQAQIIFSPRETSPYVNRMRMNWASMREDVLHSFPAAPGLPADSAKYLKQVEAVYVNDAYNSLSIEGYKVSAALIEKVRSGNWNPDSNKDDQDHRNALAARGYWQAFQKVRESIGKVLSQENAGTVAESDHAQWYRELFGPSVTAGILKAADLAGYRNSPVYIRRSMHTPPGKEAVRELMPVLFELLQQENEAAVRVVLGHFMFVYIHPYIDGNGRIGRFLMNLMSASGGYSWIVIPLEQRNDYMAALESASVEGDIKPFSTLLANLVSTG | not soluble |
| MTHPVAVKACLFDMDGLLINTEDIYTETLNETLAEFGKGPLTWDVKIKLQGLPGPKQEKG | soluble |
